From EP0622394A1, “Reversible modification of sulfur-containing molecules with polyalkylene glycol derivatives and their use” (S.A. LABORATOIRES S.M.B., priority 1993, dated 1994) come the findings set out here.

Data set [1] can be described thus: Infrared spectroscopy (Fourier self-deconvolution, curve fitting of the amide I region): content of secondary structures. As to conditions: FTIR amide I region; counter-ions K+ and Cl-; pH 5.0. Type of data set: physicochemical. On the procedure:
Spectra were recorded with a Perkin-Elmer infrared spectrometer 983 G equipped with a Perkin-Elmer microspecular reflectance accessory (ref. P.E. 221-0357). The internal reflection element was a Germanium ATR plate (50 x 20 x 2 mm, Harrick EJ 2121) with an aperture angle of 45° yielding 25 […] reflections. The mean stan rate was 15.5 cm⁻¹/minute and up to 20 accumulations were performed when necessary to improve the signal to noise ratio. The spectrophotometer was continuously purged with air dried on a silica gel column (5 x 130 cm) at a flow rate of 7 l/minute. Spectra were recorded at a nominal resolution of 2 cm⁻¹ and encoded every 0.5 cm⁻¹. At the end of the scan, they are transferred from the memory of the spectrophotometer to an Olivetti M 40 itself coupled to an Olivetti M 24 computer Spectra were Fourier transformed and stored for subsequent treatments.
In both cases the S-pegylated protein eluted from the CM-Sephadex C-50 before the irreversibly oxidized material. […] Indeed : 1. […] The proportions of the different secondary structures were determined, as previously described by Cabiaux et al, 1989, J. Biol. Chem., 264:4928-4938, using the frequency regions for the different structures as follows : 1661-1647 cm⁻¹ : α-helix; 1689-1682 + 1637-1615 cm⁻¹ : β-sheet; 1644.5-1637.7 cm⁻¹ : random and 1682-1661 cm⁻¹ : β-turn. […]

Data set [2] is described as follows: Acid denaturation: residual amidase activity after incubation in acidic buffer. The data set is classed as physicochemical. As to conditions: 40 µM proteinase, 25°C. On the procedure:
Indeed : • 1. […] Similar results were obtained in the case of papain.
Time course dependence of acid denaturation of S-methylthio PP III (---) and S-pegyl (5000) thio PP III (―) at various pH and at 25°C.
At various time intervals, aliquot were removed and assayed for residual amidase activity using the assay method N° 3.

For “S-Pegylated Papaya Pectinase III: papaya proteinase III S-pegylated with PEG 5 kDa disulfide derivative”, in data set [1], the “PERCENTAGE OF Random” value amounted to 8.3, the “PERCENTAGE OF α-Helix” value worked out at 27.9, the “PERCENTAGE OF β-Sheet” value stood at 36.1 and the “PERCENTAGE OF β-Turns” value is given as 27.7. The “lowest pH at which solutions remain stable (acid denaturation)” value in data set [2] is reported as 2.6.

B1: S-Pegylated papain: papain modified at its thiol with a 5 kDa PEG chain through a disulfide bond (conjugate, UniProt P00784 134-345, looked up)
Papain: IPEYVDWRQKGAVTPVKNQGSCGSCWAFSAVVTIEGIIKIRTGNLNEYSEQELLDCDRRSYGCNGGYPWSALQLVAQYGIHYRNTYPYEGVQRYCRSREKGPYAAKTDGVRQVQPYNEGALLYSIANQPVSVVLEAAGKDFQLYRGGIFVGPCGNKVDHAVAAVGYGPNYILIKNSWGTGWGENGYIRIKRGTGNSYGVCGLYTSSFYPVKN
modifications: S-PEG 5 kDa
notes: papain modified at its thiol with a 5 kDa PEG chain through a disulfide bond
For the molecule B1, in data set [1], the “PERCENTAGE OF Random” value was determined as 8.2, the “PERCENTAGE OF α-Helix” value stood at 28.2 and the “PERCENTAGE OF β-Turns” value turned out to be 27.0.
